As a reminder, the stoichiometry N is a count of units in the complex or per binding partner.

For test [1], the target named is batCOV5-MCTD-GFP as crystallized (Pipistrellus bat coronavirus HKU5) (UniProt A3EXD6). Kind of test: crystal structure.
Test [2] addresses batCOV5-M, trypsin-treated stable core as crystallized (batCOV5-M_(xtal)) (Pipistrellus bat coronavirus HKU5) (UniProt A3EXD6). The test is described as follows: crystal structure.

For “batCOV5-MCTD-GFP as crystallized (from UniProt A3EXD6 115-203) (domain or fragment)”, in test [1], the stoichiometry N is 4.
As to “batCOV5-M, trypsin-treated stable core as crystallized (batCOV5-M_(xtal)) (from UniProt A3EXD6 1-220) (natural protein)”, the stoichiometry N in test [2] stood at 2.

Values taken from publication doi:10.1101/2022.06.28.497981.
